Source: article PMC7244493, “Osteogenesis imperfecta mutations in plastin 3 lead to impaired calcium regulation of actin bundling” (Bone Research, 2020)

How the values were obtained:
[1] = biological target: T1, F-actin (chicken skeletal muscle actin, polymerized) (chicken, UniProt P68139 1-377); assay: cell-based or functional assay
[2] = biological target: T1, F-actin (chicken skeletal muscle actin, …); assay: co-sedimentation; high-speed co-sedimentation, 300 000 g, 25 °C, 30 min; plastin 5 µmol·L^-1, F-actin varied 1-50 µmol·L^-1; actin polymerized in 2 mmol·L^-1 MgCl2, 30 mmol·L^-1 KCl, 10 mmol·L^-1 HEPES pH 7.0; incubated overnight at 4 °C then 1 h at 25 °C; SDS-PAGE densitometry, fit to a binding isotherm; conditions: both partners purified

F-actin bundling, low-speed (17 000 g) co-sedimentation, [PLS3]50%, Ca^2+ [1] [µmol/L] | F-actin bundling, low-speed (17 000 g) co-sedimentation, [PLS3]50%, EGTA [1] [µmol/L] | Kd [2] [µM] | Binder
2.09 | 0.53 | 3.77 | plastin 3 (PLS3) A253_L254insN (natural protein, plastin 3 (PLS3), human, osteogenesis imperfecta-linked single-residue insertion A253_L254insN in the CH1-CH2 connecting loop of ABD1; Patient mutation; also called Ca2+-hypersensitive mutant; source: E. coli BL21-CodonPlus(DE3), purified (TALON cobalt resin)) MDEMATTQISKDELDELKEAFAKVDLNSNGFICDYELHELFKEANMPLPGYKVREIIQKLMLDGDRNKDGKISFDEFVYIFQEVKSSDIAKTFRKAINRKEGICALGGTSELSSEGTQHSYSEEEKYAFVNWINKALENDPDCRHVIPMNPNTDDLFKAVGDGIVLCKMINLSVPDTIDERAINKKKLTPFIIQENLNLALNSASAIGCHVVNIGAEDLRAGKPHLVLGLLWQIIKIGLFADIELSRNEALAANLLRDGETLEELMKLSPEELLLRWANFHLENSGWQKINNFSADIKDSKAYFHLLNQIAPKGQKEGEPRIDINMSGFNETDDLKRAESMLQQADKLGCRQFVTPADVVSGNPKLNLAFVANLFNKYPALTKPENQDIDWTLLEGETREERTFRNWMNSLGVNPHVNHLYADLQDALVILQLYERIKVPVDWSKVNKPPYPKLGANMKKLENCNYAVELGKHPAKFSLVGIGGQDLNDGNQTLTLALVWQLMRRYTLNVLEDLGDGQKANDDIIVNWVNRTLSEAGKSTSIQSFKDKTISSSLAVVDLIDAIQPGCINYDLVKSGNLTEDDKHNNAKYAVSMARRIGARVYALPEDLVEVKPKMVMTVFACLMGRGMKRV
2.97 | 0.49 | 7.41 | plastin 3 (PLS3), wild type (natural protein, plastin 3 (PLS3, T-plastin), human; recombinant wild type, parent of the OI mutants; Modified pColdI vector with a TEV protease site after the 6xHis tag; also called T-plastin; WT PLS3; source: E. coli BL21-CodonPlus(DE3), purified (TALON cobalt resin)) MDEMATTQISKDELDELKEAFAKVDLNSNGFICDYELHELFKEANMPLPGYKVREIIQKLMLDGDRNKDGKISFDEFVYIFQEVKSSDIAKTFRKAINRKEGICALGGTSELSSEGTQHSYSEEEKYAFVNWINKALENDPDCRHVIPMNPNTDDLFKAVGDGIVLCKMINLSVPDTIDERAINKKKLTPFIIQENLNLALNSASAIGCHVVNIGAEDLRAGKPHLVLGLLWQIIKIGLFADIELSRNEALAALLRDGETLEELMKLSPEELLLRWANFHLENSGWQKINNFSADIKDSKAYFHLLNQIAPKGQKEGEPRIDINMSGFNETDDLKRAESMLQQADKLGCRQFVTPADVVSGNPKLNLAFVANLFNKYPALTKPENQDIDWTLLEGETREERTFRNWMNSLGVNPHVNHLYADLQDALVILQLYERIKVPVDWSKVNKPPYPKLGANMKKLENCNYAVELGKHPAKFSLVGIGGQDLNDGNQTLTLALVWQLMRRYTLNVLEDLGDGQKANDDIIVNWVNRTLSEAGKSTSIQSFKDKTISSSLAVVDLIDAIQPGCINYDLVKSGNLTEDDKHNNAKYAVSMARRIGARVYALPEDLVEVKPKMVMTVFACLMGRGMKRV
0.59 | 0.47 | 4.22 | plastin 3 (PLS3) A368D (natural protein, plastin 3 (PLS3), human, osteogenesis imperfecta-linked missense mutation A368D in CH2 of ABD1; Patient mutation; also called Ca2+-insensitive mutant; Ca2+-hyposensitive mutant; source: E. coli BL21-CodonPlus(DE3), purified (TALON cobalt resin)) MDEMATTQISKDELDELKEAFAKVDLNSNGFICDYELHELFKEANMPLPGYKVREIIQKLMLDGDRNKDGKISFDEFVYIFQEVKSSDIAKTFRKAINRKEGICALGGTSELSSEGTQHSYSEEEKYAFVNWINKALENDPDCRHVIPMNPNTDDLFKAVGDGIVLCKMINLSVPDTIDERAINKKKLTPFIIQENLNLALNSASAIGCHVVNIGAEDLRAGKPHLVLGLLWQIIKIGLFADIELSRNEALAALLRDGETLEELMKLSPEELLLRWANFHLENSGWQKINNFSADIKDSKAYFHLLNQIAPKGQKEGEPRIDINMSGFNETDDLKRAESMLQQADKLGCRQFVTPADVVSGNPKLNLDFVANLFNKYPALTKPENQDIDWTLLEGETREERTFRNWMNSLGVNPHVNHLYADLQDALVILQLYERIKVPVDWSKVNKPPYPKLGANMKKLENCNYAVELGKHPAKFSLVGIGGQDLNDGNQTLTLALVWQLMRRYTLNVLEDLGDGQKANDDIIVNWVNRTLSEAGKSTSIQSFKDKTISSSLAVVDLIDAIQPGCINYDLVKSGNLTEDDKHNNAKYAVSMARRIGARVYALPEDLVEVKPKMVMTVFACLMGRGMKRV
 |  | 2.16 | plastin 3 (PLS3) L478P (natural protein, plastin 3 (PLS3), human, osteogenesis imperfecta-linked missense mutation L478P in CH3 of ABD2; Patient mutation; also called bundling-deficient mutant; source: E. coli BL21-CodonPlus(DE3), purified (TALON cobalt resin)) MDEMATTQISKDELDELKEAFAKVDLNSNGFICDYELHELFKEANMPLPGYKVREIIQKLMLDGDRNKDGKISFDEFVYIFQEVKSSDIAKTFRKAINRKEGICALGGTSELSSEGTQHSYSEEEKYAFVNWINKALENDPDCRHVIPMNPNTDDLFKAVGDGIVLCKMINLSVPDTIDERAINKKKLTPFIIQENLNLALNSASAIGCHVVNIGAEDLRAGKPHLVLGLLWQIIKIGLFADIELSRNEALAALLRDGETLEELMKLSPEELLLRWANFHLENSGWQKINNFSADIKDSKAYFHLLNQIAPKGQKEGEPRIDINMSGFNETDDLKRAESMLQQADKLGCRQFVTPADVVSGNPKLNLAFVANLFNKYPALTKPENQDIDWTLLEGETREERTFRNWMNSLGVNPHVNHLYADLQDALVILQLYERIKVPVDWSKVNKPPYPKLGANMKKLENCNYAVELGKHPAKFSPVGIGGQDLNDGNQTLTLALVWQLMRRYTLNVLEDLGDGQKANDDIIVNWVNRTLSEAGKSTSIQSFKDKTISSSLAVVDLIDAIQPGCINYDLVKSGNLTEDDKHNNAKYAVSMARRIGARVYALPEDLVEVKPKMVMTVFACLMGRGMKRV
6.36 | 0.58 | 4.79 | plastin 3 (PLS3) N446S (natural protein, plastin 3 (PLS3), human, osteogenesis imperfecta-linked missense mutation N446S in a proline-rich loop of CH3; Patient mutation; also called Ca2+-hypersensitive mutant; source: E. coli BL21-CodonPlus(DE3), purified (TALON cobalt resin)) MDEMATTQISKDELDELKEAFAKVDLNSNGFICDYELHELFKEANMPLPGYKVREIIQKLMLDGDRNKDGKISFDEFVYIFQEVKSSDIAKTFRKAINRKEGICALGGTSELSSEGTQHSYSEEEKYAFVNWINKALENDPDCRHVIPMNPNTDDLFKAVGDGIVLCKMINLSVPDTIDERAINKKKLTPFIIQENLNLALNSASAIGCHVVNIGAEDLRAGKPHLVLGLLWQIIKIGLFADIELSRNEALAALLRDGETLEELMKLSPEELLLRWANFHLENSGWQKINNFSADIKDSKAYFHLLNQIAPKGQKEGEPRIDINMSGFNETDDLKRAESMLQQADKLGCRQFVTPADVVSGNPKLNLAFVANLFNKYPALTKPENQDIDWTLLEGETREERTFRNWMNSLGVNPHVNHLYADLQDALVILQLYERIKVPVDWSKVSKPPYPKLGANMKKLENCNYAVELGKHPAKFSLVGIGGQDLNDGNQTLTLALVWQLMRRYTLNVLEDLGDGQKANDDIIVNWVNRTLSEAGKSTSIQSFKDKTISSSLAVVDLIDAIQPGCINYDLVKSGNLTEDDKHNNAKYAVSMARRIGARVYALPEDLVEVKPKMVMTVFACLMGRGMKRV
0.03 | 0.1 | 2.56 | plastin 3 (PLS3) E249_A250insIMGHSHSGSCLL (natural protein, Patient mutation; also called E249_A250insI-L; Ca2+-insensitive mutant; source: E. coli BL21-CodonPlus(DE3), purified (TALON cobalt resin)) MDEMATTQISKDELDELKEAFAKVDLNSNGFICDYELHELFKEANMPLPGYKVREIIQKLMLDGDRNKDGKISFDEFVYIFQEVKSSDIAKTFRKAINRKEGICALGGTSELSSEGTQHSYSEEEKYAFVNWINKALENDPDCRHVIPMNPNTDDLFKAVGDGIVLCKMINLSVPDTIDERAINKKKLTPFIIQENLNLALNSASAIGCHVVNIGAEDLRAGKPHLVLGLLWQIIKIGLFADIELSRNEIMGHSHSGSCLLALAALLRDGETLEELMKLSPEELLLRWANFHLENSGWQKINNFSADIKDSKAYFHLLNQIAPKGQKEGEPRIDINMSGFNETDDLKRAESMLQQADKLGCRQFVTPADVVSGNPKLNLAFVANLFNKYPALTKPENQDIDWTLLEGETREERTFRNWMNSLGVNPHVNHLYADLQDALVILQLYERIKVPVDWSKVNKPPYPKLGANMKKLENCNYAVELGKHPAKFSLVGIGGQDLNDGNQTLTLALVWQLMRRYTLNVLEDLGDGQKANDDIIVNWVNRTLSEAGKSTSIQSFKDKTISSSLAVVDLIDAIQPGCINYDLVKSGNLTEDDKHNNAKYAVSMARRIGARVYALPEDLVEVKPKMVMTVFACLMGRGMKRV
